Test results taken from publication doi:10.1101/2022.09.05.506711.

Biological target: Francisella tularensis class II fructose-1,6-bisphosphatase (Francisella tularensis)
Test: crystal structure

Substance: Francisella tularensis class II fructose-1,6-bisphosphatase (enzyme)
- stoichiometry N: 4
